Measured values published in patent US20210403538A1.

How the values were obtained:
[1] = molecular target: MARV GP [change] (Lake Victoria marburgvirus) (UniProt Q1PD50)
[2] = molecular target: SUDV GP [change] (Sudan ebolavirus) (UniProt Q7T9D9)
[3] = molecular target: EBOV GP [change] (Zaire ebolavirus (EBOV), strain Makona); assay: ELISA, coated recombinant GP ΔTM
[4] = molecular target: BDBV GP [change] (Bundibugyo ebolavirus (BDBV), strain 200706291 Uganda); assay: ELISA, coated recombinant GP ΔTM
[5] = molecular target: SUDV GP [change] (Sudan ebolavirus (SUDV), strain Gulu) (UniProt Q7T9D9); assay: ELISA

Substance	EC50 [1] [µg/mL]	EC50 [2] [µg/mL]	EC50 [3] [µg/mL]	EC50 [4] [µg/mL]	EC50 [5] [µg/mL]
4G7 (antibody)	> 10	> 10	0.018	> 10	–
KZ52 (antibody)	> 10	> 10	0.014	> 10	–
rEBOV-520 LALA	–	–	–	–	0.377
